Each binder was assayed against T1, HLA-A*01 (human) (assay: UV peptide-exchange ELISA; ++++ = yield >75%).
T1 construct: MHC monomer made peptide-receptive by UV cleavage of a UV-sensitive ligand; also called peptide-receptive MHC class I monomer
Text: (§1) Candidate peptides for T cell based therapies according to the present invention were further tested for their MHC binding capacity (affinity). The individual peptide-MHC complexes were produced by UV-ligand exchange, where a UV-sensitive peptide is cleaved upon UV-irradiation, and exchanged with the peptide of interest as analyzed. Only peptide candidates that can effectively bind and stabilize the peptide-receptive MHC molecules prevent dissociation of the MHC complexes. To determine the yield of the exchange reaction, an ELISA was performed based on the detection of the light chain (β2m) of stabilized MHC complexes. The assay was performed as generally described in Rodenko et al. (Rodenko et al., 2006).
(§2) 96 well MAXISorp plates (NUNC) were coated over night with 2 ug/ml streptavidin in PBS at room temperature, washed 4× and blocked for 1 h at 37° C. in 2% BSA containing blocking buffer. […] Peptide-MHC monomers of the UV-exchange reaction were diluted 100-fold in blocking buffer. Samples were incubated for 1 h at 37° C., washed four times, incubated with 2 ug/ml HRP conjugated anti-β2m for 1h at 37° C., washed again and detected with TMB solution that is stopped with […]. Absorption was measured at 450 nm.

| peptide exchange yield [%] | Binder |
| --- | --- |
| > 75 | ETEQTKFWDY [ETEQTKFWDY (SEQ ID NO: 406)] |

These binders were tested against T2, HLA-A*24 (human) (assay: UV peptide-exchange ELISA; ++++ = yield >75%).
T2 construct: MHC monomer made peptide-receptive by UV cleavage of a UV-sensitive ligand; also called peptide-receptive MHC class I monomer
Text: as §1, §2

| peptide exchange yield [%] | Binder |
| --- | --- |
| > 75 | QFAAPLRGIYF [QFAAPLRGIYF (SEQ ID NO: 58)] |
| > 75 | TQPGDWTLF [TQPGDWTLF (SEQ ID NO: 22)] |
| > 75 | YYSIISHTL [YYSIISHTL (SEQ ID NO: 28)] |
| > 75 | KYTNWKAFL [KYTNWKAFL (SEQ ID NO: 38)] |
| > 75 | IYQQIIQTY [IYQQIIQTY (SEQ ID NO: 68)] |
| > 75 | TWFPKTPMLF [TWFPKTPMLF (SEQ ID NO: 78)] |
| > 75 | NYIYSISVF [NYIYSISVF (SEQ ID NO: 75)] |
| > 75 | RYEGILYTI [RYEGILYTI (SEQ ID NO: 72)] |
| > 75 | YPSIIQEF [YPSIIQEF (SEQ ID NO: 57)] |
| > 75 | QYDPTPLTW [QYDPTPLTW (SEQ ID NO: 1)] |
| > 75 | SYNGYVFYL [SYNGYVFYL (SEQ ID NO: 25)] |
| > 75 | KYLEESVWL [KYLEESVWL (SEQ ID NO: 35)] |
| > 75 | AFPVTSIFHTF [AFPVTSIFHTF (SEQ ID NO: 46)] |
| > 75 | KFIISDWRF [KFIISDWRF (SEQ ID NO: 23)] |
| > 75 | RFLPSPVVI [RFLPSPVVI (SEQ ID NO: 82)] |
| > 75 | VYMIEPLEL [VYMIEPLEL (SEQ ID NO: 56)] |
| > 75 | LYISEVRNI [LYISEVRNI (SEQ ID NO: 49)] |
| > 75 | EFTTVLYNF [EFTTVLYNF (SEQ ID NO: 20)] |
| > 75 | YYSPLRDLL [YYSPLRDLL (SEQ ID NO: 80)] |
| > 75 | TLPNTIYRF [TLPNTIYRF (SEQ ID NO: 42)] |
| > 75 | YYSKSVGFMQW [YYSKSVGFMQW (SEQ ID NO: 11)] |

| peptide exchange yield [%] | Binder |
| --- | --- |
| > 75 | TYCQNIKEF [TYCQNIKEF (SEQ ID NO: 83)] |
| > 75 | RYPGKFYRV [RYPGKFYRV (SEQ ID NO: 67)] |
| > 75 | NYTLYPITF [NYTLYPITF (SEQ ID NO: 27)] |
| > 75 | TYSKKHFRI [TYSKKHFRI (SEQ ID NO: 381)] |
| > 75 | KYITNLEDL [KYITNLEDL (SEQ ID NO: 53)] |
| > 75 | KYVKDFHKF [KYVKDFHKF (SEQ ID NO: 376)] |
| > 75 | DYIGSVEKW [DYIGSVEKW (SEQ ID NO: 18)] |
| > 75 | PFLPPAACFF [PFLPPAACFF (SEQ ID NO: 8)] |
| > 75 | QYQNVLTLW [QYQNVLTLW (SEQ ID NO: 31)] |
| > 75 | SYPELVKMVW [SYPELVKMVW (SEQ ID NO: 50)] |
| > 75 | KFLGPAEHLTF [KFLGPAEHLTF (SEQ ID NO: 378)] |
| > 75 | VMPSDSFFF [VMPSDSFFF (SEQ ID NO: 63)] |
| > 75 | KYMKIFHKF [KYMKIFHKF (SEQ ID NO: 52)] |
| > 75 | RYLADLPTL [RYLADLPTL (SEQ ID NO: 79)] |
| > 75 | KYADYFLEV [KYADYFLEV (SEQ ID NO: 47)] |
| > 75 | VYPASKMFPFI [VYPASKMFPFI (SEQ ID NO: 65)] |
| > 75 | VYDQYFITL [VYDQYFITL (SEQ ID NO: 74)] |
| > 75 | HYTYILEVF [HYTYILEVF (SEQ ID NO: 13)] |
| > 75 | VWSNVTPLKF [VWSNVTPLKF (SEQ ID NO: 2)] |
| > 75 | MYPDLSELLM [MYPDLSELLM (SEQ ID NO: 24)] |

More lines, now with the values behind:

| Binder | peptide exchange yield [%] |
| --- | --- |
| PYTNYTFDF [PYTNYTFDF (SEQ ID NO: 70)] | > 75 |
| QWPWQASLQF [QWPWQASLQF (SEQ ID NO: 37)] | > 75 |
| VWSDVTPLNF [VWSDVTPLNF (SEQ ID NO: 10)] | > 75 |
| IYFRDSSFL [IYFRDSSFL (SEQ ID NO: 66)] | > 75 |
| KYFVPPQLF [KYFVPPQLF (SEQ ID NO: 45)] | > 75 |
| VYSDLHAFYY [VYSDLHAFYY (SEQ ID NO: 375)] | > 75 |
| VFIDHPVHLKF [VFIDHPVHLKF (SEQ ID NO: 48)] | > 75 |
| MQPRMFFLF [MQPRMFFLF (SEQ ID NO: 34)] | > 75 |
| QYLPGWTVLF [QYLPGWTVLF (SEQ ID NO: 30)] | > 75 |
| SYMVLAPVF [SYMVLAPVF (SEQ ID NO: 71)] | > 75 |
| RWMDQRLVF [RWMDQRLVF (SEQ ID NO: 55)] | > 75 |
| SLPDLTPTF [SLPDLTPTF (SEQ ID NO: 32)] | > 75 |
| KYALLLQDL [KYALLLQDL (SEQ ID NO: 15)] | > 75 |
| KYALLLQEL [KYALLLQEL (SEQ ID NO: 51)] | > 75 |
| VYPLLSRLYW [VYPLLSRLYW (SEQ ID NO: 29)] | > 75 |
| LYQEILAQL [LYQEILAQL (SEQ ID NO: 62)] | > 75 |
| KTPTNYYLF [KTPTNYYLF (SEQ ID NO: 26)] | > 75 |
| AYLSAVGTF [AYLSAVGTF (SEQ ID NO: 44)] | > 75 |
| VYVGAVNRI [VYVGAVNRI (SEQ ID NO: 377)] | > 75 |
| LYPEGLRLL [LYPEGLRLL (SEQ ID NO: 81)] | > 75 |
| KYKDYFPVI [KYKDYFPVI (SEQ ID NO: 6)] | > 75 |
| KYVKVFDKF [KYVKVFDKF (SEQ ID NO: 384)] | > 75 |
| SYEKVINYL [SYEKVINYL (SEQ ID NO: 4)] | > 75 |
| RYMKKDYLI [RYMKKDYLI (SEQ ID NO: 5)] | > 75 |
| NYAIFDEGHML [NYAIFDEGHML (SEQ ID NO: 64)] | > 75 |
| IMPEKFEFW [IMPEKFEFW (SEQ ID NO: 69)] | > 75 |

Reference: US11352401
